# Assay: yeast display, Sf9 membrane polyspecificity reagent, FACS + sequencing; frameworks hold sequencing errors
# In short: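 Nanobodies from a synthetic yeast display library (Saccharomyces cerevisiae BJ5465), induced 36–48 hours with galactose, were stained 1 hour at 4 °C with 10% biotinylated, detergent-solubilized Sf9 membrane reagent, enriched on streptavidin microbeads, then FACS-sorted. Anti-HA (expression) and streptavidin (reagent binding) fluorescence set low and high (top ~1%) gates. Polyreactivity labels come from the gate of origin. Genes were colony-PCR amplified, MiSeq 2 × 250 sequenced and filtered by CDR length.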
row,Sequence,polyreactivity (PSR sort gate)
1,QVQLVESGGGLVQAGVSLRLSCAASGSTFTANAMGWYRQAPGKERELVAAITNSDGSTYYADSVKGRFTISRDNAKNTVYLQINSLKPEDTAVYYCAKDYYACFWEMDYWGQGTQVTVSS,low polyreactivity
2,QVQLVESGGGLVQAGGSLRLRSAASGFTFHRYAMGWSRQAPGKERELVAGITRRSGSTFYADSVKGRFTISRDNAKNTVYLQMNSLKPEDTAVYYCAATVPGLHWIYDYWGQGTQVTVSS,high polyreactivity
3,QVQLVESGGGLVQAGGSLRLSCAASGSIFSSYAMGWYRQAPGKERELVAAISQSGGDTYYADSVKGRFTISRDNAKNTVYLQMNSLKPEDTAVYYCNRDFSLVVHYNFDYWGQGTQVTVSS,low polyreactivity
4,QVQLLESGGVLVQAGGSLLLSCAASGSIFSPYAMGRYRQAPGKERELVATISTIDGSTTYADSVKGRFTISRDYAKNTVYLQMKSLKPEDTAVYYCNAEYAYFKLWANPYDMDYWGQGTQVTVSS,low polyreactivity
5,QVQLVESGGGLVQAGGSLRLSCAASGSIFKVYAMGWYRQAPGKEREFVAAITSSDSNTNYADSVKGRFTISRDNAKNTDYLQMNSLKPEDTAVYYCNARIYTRRYVPHYGFNYWGQGTQVTVSS,low polyreactivity
6,QVHLVESGGGLVQAGGSLRLSCAASGIIFGHYDMGWYRQAPGKERELVAAITFTGDSTYADSVKGRFTISRDNAMNTVYLQMNSLKPEDTAVYYCNASVKPSNVWSRGYDYWGQGTQVTVSS,low polyreactivity
7,QVQLVESGGGLVQAGGSLRLSRAASGRSYVYAMGWYRQAPGTETEVVAAISTISSSTYYADSVKGRFTISRDNAKNTVYLQMNSLKPEDTAVYYCAADYSQYYYYGWIDSDYWGQGTQVTVSS,high polyreactivity
8,QVQLVESGGGLVQAGGSLRLSSAASGRTLARNAMGWYRQAPGKERELVAGITSGGSTDYADSVKGRFTISRDNAKNTVYLQMNSLKPEDTAVYYCNRDAGPGGDYWGQGTQGTVSS,low polyreactivity
9,QVQLVESGGGLVQAGGSLRLSCAASGFTFRSNAMGWYRQAPGKERELVAAITRGGGSTYYADSVKGRFTISRDNEKNTVYLQMNSLKPEDTAVYYCAAGGFRTSRRDYWGQGTQVTVSS,high polyreactivity
10,QVQLVESGGGLVQAGGSLRLSCAASGSTFYVYDMGWYRQAPGKERELVADISWSGGSTYADSVKGRFTISRDNAKNTVYLQMNSLKPEDTAVYYCAATSRPRPYHGGRMYYWGQGTQVTVSS,high polyreactivity
11,QVQLVESGGGLVQAGGSLRLSCAASGIIFSYNAMGWYRQAPGKERELVAAITSGGITNYADSVKGRFTISRDNAKNTVYLQMNSLKPEDTAVYYCAAEVWRYYRRDYWGQGTQVTVSS,low polyreactivity
12,QVQLVESGGGLVQAGGSLRVICAPSGSTFGVYAMGWYRQAPGKERDLVAAISDTGGSTYYADSVKGRFTISRDNAKTTVYLQMNSLKPEDTAVYYCAVEVGYTDSPYSYDYWGHGTQVTVSS,low polyreactivity
13,QVQLVESGGGLVQAGGSLRLSCAASGSTFAAYAAMGWYRQAPGKERELVAAISWNGGSTFYADSVKGRFTISRDNAKNTVYLQMNSLKPEDTAVYYCAVEYYWTLDFTFTFPLSYYWGQGSQVTVSS,low polyreactivity
14,QVQLVESGGGLVQAGGSLRLSCAASGRTFRGNAMGWYRQAPGKERELVAAISRRGVSTYYADSVKGRFTISRDNAKNTVYLQMNSLKPEDTAVYYCNADTSYQRVGGNYWGQGTQVTVSS,high polyreactivity
15,QVQLVESGGGLVQAGGSLRLSCAASGRIFPGYAMGWYRQAPGKERELVAAISTNGGRTYYADSVKGRFTISRDNAKNTVYLQMNSLKPEDTADYYCAAESAYDAYDYWGQGTQVTVSS,high polyreactivity
16,QVQLVESGGGLVQAGGSLRLSCAASGSIFYGNAMGWYRQAPGKERELVAAITRGTRTYYADSVKGRFTISRDNAKNTVYLQMNSLKPEDTAVYYCAAYLYVPYRYKYDYWGQGAQVTVSS,high polyreactivity

row,Sequence,polyreactivity (PSR sort gate)
1,QVQLVESGGGLVQAGGSLRLSCAASGSTFWSNPMGWYRQAPGKERELVAAISISDGNTYYADSVKGRFTISRDNAKNTVYLQMNSLKPDDTAVYYCATVGSEDGDPGFDYWGQGTQVTVSS,low polyreactivity
2,QVQLVESGGGLVQAGGSLRLSCAASGSTFRANVMGWYRQAPGKEWELVAAITSGGGSTYYADSVKGRFTISRDNAKNTVYLQMNSLKPEDTAVYYCATKRARYSYYYWGQGTQVTVSS,high polyreactivity
3,QVQLVESGGGLVQAGGSLRLSCAASGRIFSYNTLMRWYRQAPGKERELVAAITFSSASTYYADSVKGRFTISRDNAKNTVYLQMNSLKPEDTAVYYCAAAIRSQSSKYYYWGQGTQVTVSS,low polyreactivity
4,QVQLQESGGGLVQAGGSLRLSCAASGNIYDADIMGWYRQAPGKERELVTSITDGGSTNYADSVKGRFTISRDNAKNTVYLQMNSLKPEDTAVYYCAAIAYPDIPTSFDYNTDYSYWGQGTQVTVSS,low polyreactivity
5,QVQLVESGGGLVQAGGSLRLSCAASGRTLDGNDMGWYRQPPGKERELVAAITVTGSSTYYADSVKGRFTISRDNAKNTVYLQMNSLKPEDTAVYYCAKASGGDVRYSYSYRMDYWGQGTQVTVSS,low polyreactivity
6,QVQLVESGGGLVQAGGSLRLSCAAYGSTFRRNTMGWYRQAPGKERELVAGISSSGGSTYYADSVKGRFTISRDTAMNTVYLQMNSLKPEDTAVYYCAARYYVSYVGYNYWGQCTQVTVSS,high polyreactivity
7,QVQLVESGGGLVQAGGSLRFSCAASGRTFYGYAMGWYRQAPGKERELVAAITRSGGSTYYADSVKGRFTISRDNAKNTVYLQMNSLKPEDTAVYYCAAGGQARHDYWGQGTQVTVSS,low polyreactivity
8,QVQLVESGGGLVQAGGSLRLSCAASGITFGRNTMAWYIQAPGKERELVAAIDSGGNTYADSVKGRFTISRDNAKITVDLQMNSLKQEDTSVYYCAVVWVWDVWFLVYYWGQGTQVTVSS,low polyreactivity
9,QVQLEESGGGLVQAGGSLRLSCAASGNTFTEYAMGWYRPAPGKEWELVASITGSGGSTYADSVKGRFTISRDNAKNSVYLQMNSLIAEDTAVYYCAKDTRYEYVGSEYGYWGQGTQVTVSS,low polyreactivity
10,QVQLVESGGGLVQAGGSLRLSCAASGRTFVTNAMGWYRQAPGKERELVAAISYSGGSTTYADSVKGRFTISRDNAKNTVYLQMNSLKPEDTAVYYCNAQEDLVPKLRYYPPSDYWGQGTQVTVSS,low polyreactivity
11,QVQLVESGGGLVQAGGSLRLSCAASGFTIHRYAMGWYRQAPGKERELVAAIRWSGGRTYYADSVKGRFTISRDNAKNTVYLQMNSLKPEDTAVYYCAARTNSPRGYGSDYWGKGTQVTVSS,high polyreactivity
12,QVQLVESGGGLVQAGGSLRLSCAASGRIFAHNAMGWYRQAPGKERELVAAISSSDGSTYYADSVKGRFTISRDNAKNTVYLQMNSLKPEDTAVYYCAARGSPSKHHWYDYWGQGTQVTVSS,low polyreactivity
13,QVQLVESCGGLVQAGGSLRLSCADSGYTFTTYVMGWYRQAPGKERELVAAISRRGTSTRYADSVKGRFTISRDNAKNTVYFQMNSLKPEDTAVYYCAARSSVPNRFTRDGYWGQGTQVTVSS,high polyreactivity
14,QVQLVESGGGLVQAGGSLRLSCADSGRIIPSYDMGWYRQAPGKERELVAVIRSSVDGTYYADSVKGRFTISRDNAKNTVYLQMNSLKPEDTAVYDCAADSLTPKSASDYWGQGTQVTVSS,low polyreactivity
15,QVQLVESGGGLVQAGGSLRLSCAASGCTIWSSAMGWYRQAPGKERELVASITWSGGSTYADSVKGRFTISRDNAKNTVYLQMNSLKPEDTAVYYCARESTLTYYSDDFDYWGQGTQVTVSS,low polyreactivity

# Reference: the nanobody polyreactivity screen of Harvey et al. (2022)
